Results from publication PMC10618197.

Assays:
[1] = target: AIDA-SpyCatcher fusion protein displayed on the OMV surface (Streptococcus pyogenes | not stated); assay: SEC; 10 µM SpT-CF incubated with OMV isolates for 24 h at 4 °C; SEC-HPLC on Sepharose CL-4B in PBS pH 7.4; AUC of the OMV peak of the fluorescent chromatogram normalized to the AUC of the corresponding UV peak
[2] = target: HbpD-SpyCatcher fusion protein displayed on the OMV surface (not stated | Streptococcus pyogenes); assay: as above
[3] = target: AIDA-SpyCatcher fusion protein displayed on the OMV surface (Streptococcus pyogenes | not stated); assay: SDS-PAGE with in-gel fluorescence of the covalent adduct; 10 µM SpT-CF incubated with OMV isolates for 24 h at 4 °C; fluorescence of the specific band normalized to the OmpF band after PageBlue staining; 3 separate OMV isolates for each plasmid
[4] = target: HbpD-SpyCatcher fusion protein displayed on the OMV surface (not stated | Streptococcus pyogenes); assay: as above

Substance: carboxyfluorescein coupled SpyTag (peptide)
- fluorescence AUC of the OMV peak normalized to the UV AUC [1]: 6.86 AU
- fluorescence AUC of the OMV peak normalized to the UV AUC [2]: 2.25 AU
- SpT-CF band fluorescence normalized to the OmpF band [3]: 6.55 AU
- SpT-CF band fluorescence normalized to the OmpF band [4]: 4.15 AU
